According to the nanobody polyreactivity screen of Harvey et al. (2022):

experiment: yeast display, Sf9 membrane polyspecificity reagent, FACS + sequencing; frameworks hold sequencing errors
Procedure, shortened: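 Galactose-induced (36–48 hours) yeast carrying a synthetic nanobody display library were exposed to 10% biotinylated, detergent-solubilized Sf9 membrane reagent at 4 °C for 1 hour. FACS followed streptavidin microbead enrichment, using low and high (top ~1%) gates for expression (anti-HA) and reagent binding (streptavidin). Colony PCR, MiSeq 2 × 250 sequencing and CDR-length filtering followed. Labels for polyreactivity reflect the gate of origin.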

Row | Sequence | polyreactivity (PSR sort gate)
1 | QVQLVESGGGLVQAGGSLRLSCAASGSTFDDNAMGWYRQAPGKERELVAGISTNGGSTSYADSVKGRFTISRDNAKNTVYLQMNSLKPEDTAVYYCAKGMYVQFDYWGQGTQVTVSS | low polyreactivity
2 | QVQLVESGRGLVQAGGSLRLSCAASGSIFWENAMGWYRQAPGKERELVADITIGGSTNYADSVKGRFTISRDNAKNTVYLQMNILKPEDTAVYYCAAYYYWPKYWYWGYDDWGQGTQVTVSS | low polyreactivity
3 | QVQLVESGGGLVQAGGSHRLSCAASGRTFYAYAMGWYRQAPGKERELVAANRYSGGRTYYADSVKGRFTISRDNAKNTVYLQMNSLKPEDTGVYYCAREWSRGSYVDYDYWGQGTQVTVSS | high polyreactivity
4 | QVQLVESGGGLVQAGRSLRLSCASSGRIFWDYAMGWYRQAPGKERELVAAISWGSGRTYYADSVKGRFTISRDNAKNTVYLQMNSLKPADSAVDYCAARSSYRKMDYWGQGTQVTVSS | high polyreactivity
5 | QDQLVESGGGLVQAGGTLSLSSAASVIIFYDNAMGWSRQAPGKEREYVAAISRSGTTTYYADSVKGRFTISRDNAKNTVYLQMNSLKPEDTAVYYCAARWVYYHAIFEYWGQGTQVTVSS | high polyreactivity
6 | QVQLQESGGGLVQAGGSLRLSCAASGNIYDADIMGWYRQAPGKERELVTSITDGGSTNYADSVKGRFTISRDNAKNTVYLQMNSLKPEDTAVYYSAAIAYADIPTSFDYNSDYSYWGQGTQVTVSS | low polyreactivity
7 | QVQLVESGGGLFQAGGSLRLSCAASGFTFYVYAMGWYRQAPGKERELVAAISSGGGSTYYADSVKGRFTISRDNAKNTVYLQMNSLKPEDTAVYYCNKLFPGTYDGAHGYWGQGTQVTVSS | low polyreactivity
8 | QVQLVESGGGLVQAGGSLRLSCAASGRTFSGNAMGWYRQAPGKERELVASISTSTDGTYYADSVKGRFTISRDNAKNTVYLQMNSLKAEDTAVYYCTTTTYHWYYYRWEIFDYRGQGTQVTVSS | low polyreactivity
9 | QVQLVESGGGIVQAGGSLRLSCAASGSIFQYNAMGWYRQAPGKERELVAAITRGDSTYYADSVKGRFTISRDNAKNTVYLQMNSLKPEDTAVYYCAARPRGKYDYWGQGTQVTVSS | high polyreactivity
10 | QVQLVESGGGLVQAGGSLRLSCAASGSIFTPYAMGWYRQAPGKERELVADIDASGGGTYADSVKGRFTISRDNAKNTVYLQMNSLKPEDTAVFYCNADTGIWDYRFVDRDYWGQGTQVTVSS | low polyreactivity
11 | QVQLVESGGGLVQAGGSLRLSCAASGITFGRNTMGWYRQAPGKESELVAAIDSGGNTYADSVKGRFTISRDNAKNTVYLQMNSLKPEDTAVYYCAADNSVGEYQRVDYDYWGQGTQVTVSS | low polyreactivity
12 | QVQLVESGGGLVQAGGSLRLSCAASGSIFLQNAMGWYRQAPGKERELVAAITNGGSTNYADSVKGRFTISRDNAKNTVYLQMNSLKPEDTAVYYCAVVRSYRGINDYWGQGTQVTVSS | low polyreactivity
13 | QVQLVESGGGLVQAGGRLRLSCAASGSTFATYAMGWYRQAPGKERELVAVISRSGGSTYYADSVKGRFTISRDNAKNTVYLQMNCLKPEDTAVYYCAARPRGKYDYRGQGTQVTVSS | high polyreactivity
14 | QVQLVESGGGLVQAGGSLRLSCAASGRTFSSNTMGWYRQAPGKERELVAAISSTDSTYYADSVKGRFTISRDNAKNTVYLQMNSLKPEDTAVYYCNKVVGFRSYFGGYGYWGQGTQVTVSS | high polyreactivity
15 | QVQLVESGGGLVQAGGRLLLSCAASGGTFYRNAMGWYRLAPGKERELVASISRTGGSTYYADSVKGRFTISRDNAKNTVYLQMNSMKPEDTAVYYCNALPYSRGRWRPLSAVDYWGQGTQVTVSS | high polyreactivity
16 | QVQLVESGGGLVQAGGSLRLSCAASGSTFGGNAMGWYRQAPGKERELVAAISSSGGSTYYADSVKGRFTISRDNAKITVYLQMNSLKPEDTAVYYCAALYHWTYDYWGQGTQVTVSS | low polyreactivity
17 | QVQLVESGGGLVQAGGSLRLSCAASGFIFVYYVMGWYRQAPGKERELVAAITQSGGSTYYADSVKGRFTISRDNAKYTVYLQMNSLKPEDTAVYYCAAYRRTTGGGYDYWGQGTQVTVSS | high polyreactivity
